This is an account of results in US20050186575A1.

Assay [1] concerns the target HR1 peptide of the SARS-CoV spike protein (SARS-CoV). In words: pooled complexes heated 5 min in 1x Tricine sample buffer, Tricine SDS-PAGE.
The target of assay [2] is MHV-A59 spike protein (mouse hepatitis virus strain A59) (UniProt P11224). In words: cell-based or functional assay.
For assay [3], the target named is T1, HR1 peptide of the MHV-A59 spike protein (amino acid residues 953-1048) (mouse hepatitis virus strain A59), P11224.
The target of assay [4] is T1, HR1 peptide of the MHV-A59 spike …. In words: pooled complexes heated 5 min in 1x Tricine sample buffer, Tricine SDS-PAGE.

T1 sequence (P11224 953-1048, tags left off): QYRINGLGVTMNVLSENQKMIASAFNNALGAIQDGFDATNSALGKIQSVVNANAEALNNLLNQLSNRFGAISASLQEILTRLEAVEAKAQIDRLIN

Regarding “HR2 peptide of the SARS-CoV spike protein”, the temperature of dissociation of the complex in assay [1] was 70 °C.
In the case of “HR2 peptide of the MHV-A59 spike protein (amino acid residues 1216-1254)”, in assay [2], the EC50 of inhibition of MHV infection of LR7 cells was found to be 900 nM and the spike-mediated cell-cell fusion (luciferase activity) (fold reduction at 10 µM) stood at 1000.
In assay [3], GPIEGRDLSLDFEKLNVTLLDLTYEMNRIQDAIKKLNESYINLKE (modifications not checked) [HR2 peptide of the MHV-A59 spike protein (amino acid residues 1216-1254)] registered a temperature of full dissociation of the complex of 90 °C, a temperature of partial dissociation of the complex of 80 °C and a temperature up to which the complex remained intact of 70 °C. In assay [4], the temperature of dissociation of the complex was 90 °C.
